In article doi:10.1101/2021.05.09.442808 (bioRxiv, 2021):

Molecular target: HKU1 S 2P prefusion-stabilized ectodomain trimer (HCoV-HKU1, isolate  (N5 used), UniProt Q0ZME7, stabilised)
Assay: SPR

B1: S2P6 Fab fragment (Fab, V domains shown)
VH: EVQLVQSGAEVKKPGASVKVSCKASGYTFTSQYMHWVRQAPGQGLEWIGIINPSGVHTSYAQKFQGRVTLTRDTSTSTLYMELSSLRSEDTAVYYCARGSPKGAFDYWGQGTLVTVSS
VL: not shown
Work on B1 yielded a Kd of ~120 nM.
